Measurements: publication PMC7617963 (Current biology : CB, 2024)

Target: the molecule itself
Assay: cross-linking; BS3 cross-linker mixed 1:1 (w/w) with protein at 1 mg/ml, 30 minutes at room temperature, quenched with 200 mM ammonium bicarbonate, resolved by SDS-PAGE

B1: CENP-E_(2452-2598) (domain or fragment, human, UniProt Q02224-1 2452-2598, looked up)
chain: PYKEEIEDLKMKLVKIDLEKMKNAKEFEKEISATKATVEYQKEVIRLLRENLRRSQQAQDTSVISEHTDPQPSNKPLTCGGGSGIVQNTKALILKSEHIRLEKEISKLKQQNEQLIKQKNELLSNNQHLSNEVKTWKERTLKREAHK
notes: CENP-E (centromere-associated protein E), residues 2452-2598; cell constructs were generated from CENP-E transcript variant 1 (NM_001813.2); cloned into pET3aTr for expression; The purification says that the His tag was cleaved with 3C protease, yet the crystallisation and cross-linking methods call the protein His6-CENP-E_(2452-2598); also called His6-CENP-E_(2452-2598); minimal corona-targeting …
For B1, the “stoichiometry N” value was 2.
